This note sets out measurements from US20060292151A1 (published 2006).

To fix the notation:
B1: L-SIGN-3 (receptor)
chain: MSDSKEPRVQQLGLLEEDPTTSGIRLFPRDFQFQQIHGHKSSTGCLGHGALVLQLLSFMLLAGVLVAILVQVSKVPSSLSQEQSEQDAIYQNLTQLKAAVGELSEKSKLQEIYQELTRLKAAVGELPEKSKLQEIYQELTQLKAAVGELPDQSKQQQIYQELTDLKTAFERLCRHCPKDWTFFQGNCYFMSNSQRNWHDSVTACQEVRAQLVVIKTAEEQNFLQLQTSRSNRFSWMGLSDLNQEGTWQWVDGSPLSPSFQRYWNSGEPNNSGNEDCAEFSGSGWNDNRCDVDNYWICKKPAACFRDE
notes: Expressed whole on the surface of stably transfected HeLa cells; Encodes tandem repeats 1, 3 and 7; also called L-SIGN isoform containing 3 tandem repeats; 3-repeat form of L-SIGN
B2: L-SIGN-4 (receptor)
chain: MSDSKEPRVQQLGLLEEDPTTSGIRLFPRDFQFQQIHGHKSSTGCLGHGALVLQLLSFMLLAGVLVAILVQVSKVPSSLSQEQSEQDAIYQNLTQLKAAVGELSEKSKLQEIYQELTRLKAAVGELPEKSKLQEIYQELTRLKAAVGELPEKSKLQEIYQELTQLKAAVGELPDQSKQQQIYQELTDLKTAFERLCRHCPKDWTFFQGNCYFMSNSQRNWHDSVTACQEVRAQLVVIKTAEEQNFLQLQTSRSNRFSWMGLSDLNQEGTWQWVDGSPLSPSFQRYWNSGEPNNSGNEDCAEFSGSGWNDNRCDVDNYWICKKPAACFRDE
notes: Expressed whole on the surface of stably transfected HeLa cells; Encodes repeats 1, 3, 4 and 7; also called L-SIGN isoform containing 4 tandem repeats; 4-repeat form of L-SIGN
B3: L-SIGN-9 (receptor)
chain: MSDSKEPRVQQLGLLEEDPTTSGIRLFPRDFQFQQIHGHKSSTGCLGHGALVLQLLSFMLLAGVLVAILVQVSKVPSSLSQEQSEQDAIYQNLTQLKAAVGELSEKSKLQEIYQELTQLKAAVGELPEKSKLQEIYQELTRLKAAVGELPEKSKLQEIYQELTRLKAAVGELPEKSKLQEIYQELTRLKAAVGELPEKSKLQEIYQELTRLKAAVGELPEKSKLQEIYQELTRLKAAVGELPEKSKLQEIYQELTELKAAVGELPEKSKLQEIYQELTQLKAAVGELPDQSKQQQIYQELTDLKTAFERLCRHCPKDWTFFQGNCYFMSNSQRNWHDSVTACQEVRAQLVVIKTAEEQNFLQLQTSRSNRFSWMGLSDLNQEGTWQWVDGSPLSPSFQRYWNSGEPNNSGNEDCAEFSGSGWNDNRCDVDNYWICKKPAACFRDE
notes: Expressed whole on the surface of stably transfected HeLa cells; also called L-SIGN isoform containing 9 tandem repeats; 9-repeat form of L-SIGN
B4: L-SIGN-5 (receptor)
chain: MSDSKEPRVQQLGLLEEDPTTSGIRLFPRDFQFQQIHGHKSSTGCLGHGALVLQLLSFMLLAGVLVAILVQVSKVPSSLSQEQSEQDAIYQNLTQLKAAVGELSEKSKLQEIYQELTQLKAAVGELPEKSKLQEIYQELTRLKAAVGELPEKSKLQEIYQELTRLKAAVGELPEKSKLQEIYQELTQLKAAVGELPDQSKQQQIYQELTDLKTAFERLCRHCPKDWTFFQGNCYFMSNSQRNWHDSVTACQEVRAQLVVIKTAEEQNFLQLQTSRSNRFSWMGLSDLNQEGTWQWVDGSPLSPSFQRYWNSGEPNNSGNEDCAEFSGSGWNDNRCDVDNYWICKKPAACFRDE
notes: Expressed whole on the surface of stably transfected HeLa cells; Encodes repeats 1-4 and 7; also called L-SIGN isoform containing 5 tandem repeats; 5-repeat form of L-SIGN

The experiment concerns the target T1, HCV pseudovirus particles (HCVpp) (hepatitis C virus isolate H77, UniProt P27958 192-383; P27958 384-746).
T1 construct: A pseudovirus particle (HIV-1 NL4.3 luciferase core) that carries E1/E2 on its envelope; Putative splice acceptor sites changed by conservative mutagenesis; also called HIV-1 particles pseudotyped with HCV E1/E2 envelope glycoproteins
Briefly: HCVpp supernatant on HeLa-SIGN transfectants, cell-bound p24 by ELISA.
B1: the binding result is recorded as “binds”.
In the case of B2 it was “binds”.
For the molecule B3, the binding result is “binds”.
For B4, the binding result is reported as “binds”.
